B1: IL-10: human recombinant IL-10 (Sigma) (protein, UniProt P22301 19-178, looked up)
Interleukin-10: SPGQGTQSENSCTHFPGNLPNMLRDLRDAFSRVKTFFQMKDQLDNLLLKESLLEDFKGYLGCQALSEMIQFYLEEVMPQAENQDPDIKAHVNSLGENLKTLRLRLRRCHRFLPCENKSKAVEQVKNAFNKLQEKGIYKAMSEFDIFINYIEAYMTMKIRN

Columns and labels:
[1] = tested on: tibialis anterior muscles of mdx mice; experiment: Intramuscular transfer of dystrophin plasmid pTG11025, dystrophin immunohistochemistry; format: in vivo, mouse; conditions: pTG11025 i.m. with adjuvant (IL-10 0.1 μg, DMSO 10% final, G-actin 10 μg), notexin 3 days before, 7 days after injection; mean +/- sem
Experimental: (§1) Plasmids are prepared according to Bischoff et al. (Analytical Biochemistry 254 (1997), 69-81). The tested interleukin-10s were mixed with the plasmid preparation (pTG11033: CMV promoter, β-globin intron, luciferase cassette; pTG11025: CMV promoter, β-globin intron, dystrophin cassette; both diluted in 0.9% NaCl), prior to intramuscular injection. 25 μg of plasmid are injected per muscle in 5 to 10 week-old C57BI/10 or mdx mice. The 2 tibialis anterior (right and left) muscles were injected (each muscle was considered as a sample, which means number of samples per condition=2×number of mice per condition).
(§2) One week after injection of the composition, mice were killed and the tibialis anterior muscles were retrieved and frozen. Based on the injected vector, either luciferase activity was determined in muscle extracts, or dystrophin expression was evaluated by immunohistochemistry.
Muscle samples were frozen in liquid nitrogen-cooled isopentane and stored at −80° C. […]
In a second experiment mdx mice were 3 times injected intramuscularly with pTG11025 (dystrophin) plus DMSO, G-actin and IL-10 after notexin-induced muscle regeneration. Plasmid-adjuvant injections were repeated 3 times in raw on a daily basis and dystrophin expression (immunohistochemistry) was evaluated 7 days after the last injection. […]

[2] = tested on: tibialis anterior muscles of C57BL/10 mice; experiment: Intramuscular transfection of luciferase plasmid pTG11033, luciferase activity of injected muscles; format: in vivo, mouse; conditions: IL-10 0.01 and 0.1 μg + 25 μg pTG11033 per muscle, dose-dependent
Experimental: as §1, §2
Luciferase activity was quantified using a conventional measurement kit (Luciferase Assay System, Promega). […] Luciferase activity was expressed as number of RLU emitted per minute.
Proteins were measured on 10 μl samples using a VCA Protein Assay Kit (Pierce). […]
One week after injection of the vectors, the mice were killed and the tibialis anterior muscles were retrieved and frozen. Luciferase activity was determined on muscle extracts. […]

Molecule	Number of dystrophin-positive fibers per cryosection [1]	increase of luciferase expression [2] [factor]
C[S+](C)[O-] [DMSO, dimethylsulfoxide]	37.8 +/− 5.5	
B1	21.7 +/− 1.9	3
